From PMC10343505 (Molecules, 2023)
Where a SMILES comes first, the peptide text is derived from it. The star is where a group is joined. Galloyl = O=C(c1cc(O)c(O)c(O)c1)*

Experiments:
[1] = Water solubility of synthesized compounds; assay type: physicochemical; conditions: concentration of 1 mg/mL in pure water
Description: The Hecate N-terminal fragments found in the serum stability experiment were selected to conjugate with gallic acid, like that in the GA-Hecate structure, where GA is coupled at the N-terminal region. Bioconjugates were synthesized using solid-phase methods and, after purification, their purity and identities were determined by high-performance liquid chromatography and mass spectrometry, respectively (see Supplementary Information). GA-metabolite 6 was not water-soluble and therefore was not considered for further biological evaluation.

[2] = tested on: Vero cells; assay: Cytotoxicity profile, WST-1 viability assay; assay type: cell-based, African green monkey; conditions: 72 h; for CC50 (50% cytotoxic concentration in VERO cells): WST-1, non-linear regression of dose-response curve; for maximum non-toxic concentration: arbitrary threshold of 80% cell viability, range 80-0.62 µM
Description: To understand the effect of GA-Hecate and N-terminal-GA-metabolites on host cells, we tested them at a range of concentrations (80–0.62 µM) on Vero cells. Considering the arbitrary threshold of 80% cell viability, GA-Hecate, and GA-metabolite 5 reached their maximum non-toxic concentration at 40 µM (Figure 2).
Figure 2 Compound effects on Vero cells. Vero cells were incubated with different concentrations of GA-peptides. At 72 h post treatment, cell viability was determined by WST viability assay and the values are plotted as those relative to the control. Bars represent triplicate samples of three independent assays. *** p < 0.001. Comparison control vs. concentration. Water, the GA-peptide vehicle, was used as a negative control. Red dotted lines represent the arbitrary threshold of 80% cell viability.
The cytotoxicity profile of GA-Hecate and GA-metabolites. Peptide cytotoxicity profiles were measured using the WST-1 (4-[3-(4-iodophenyl)-2-(4-nitrophenyl)-2H-5-tetrazolio]-3-benzene disulfonate) cell proliferation reagent. A total of 24 h before treatment, 7 × 10^3 Vero cells/well were cultured with supplemented DMEM in a 96-multi-well plate and incubated at 37 °C in a humidified 5% CO2 incubator. The next day, the peptide-containing medium was added at the following final concentrations: 80; 40; 20; 10; 5; 2.5; 1.25, and 0.625 µM. After 72 h of incubation, peptide medium was removed, and WST-1 at a dilution of 1:10 was added to the wells and incubated for 30 min. Absorbance was measured at 450 nm, using a plate reader spectrophotometer.

[3] = tested on: ZIKV strain MP1751; assay: Virucidal assay, micro-neutralization; assay type: cell-based, Zika virus; conditions: virus pre-incubated 1 h, 72 hpi, Vero
Description: We next tested the virucidal effect of GA-Hecate and GA-metabolite 5 at concentrations of 20 µM and 40 µM on ZIKV strain MP1751 as described above. Again, we found a modest effect of GA-Hecate at 40 µM on ZIKV strain MP1751 replication. […] Given the latter result, the combination was not tested.
Sandwich ELISA to assess ZIKV infectivity (micro-neutralization). This assay was performed as described previously by Lopez-Chamaco et al., 2018. Briefly, at 72 h post-treatment (h.p.i.) the infected cell medium was removed, and cells were washed with PBS and then lysed with lysis buffer (20 mM Tris-HCl (pH 7.4), 20 mM iodoacetamide, 150 mM NaCl, 1 mM EDTA, and 0.5% Triton X-100) containing protease inhibitors. The lysis solution was transferred to an Immunolon® plate pre-coated with 3 µg/mL of purified pan-flavivirus MAb D1-4G2-4-15 (ATCC® HB112TM, herein referred to as 4G2) in PBS and incubated at room temperature for 1 h. […] After washing with PBST, 100 µL of TMB solution (Life Technologies) was added and the reaction stopped at 30 min with 50 µL of 0.5 M H2SO4 solution added and read at 450 nm using a plate reader spectrophotometer (ELISA).
Entry step assessment of GA-Hecate and GA-metabolites on Zika Virus. […] The levels of virus replication were determined using micro-neutralization as described above. […]

[4] = tested on: Vero cells; assay: Cell toxicity during constant treatment (cell count, WST-1); assay type: cell-based, African green monkey; conditions: 20 µM for 3 and 7 days
Description: We next assessed the effect, if any, of our peptides on cell growth, which in turn could affect virus replication. Vero cells in culture flasks were propagated in the presence or absence of 20 µM each of GA-peptides for 3 and 7 days. At this time point, viable cells were counted following incubation with trypsin using the automated cell counter Scepter^TM (Millipore), and cell shape was monitored using phase-contrast microscopy. Then, 7 × 10^3 cells were seeded per well of a 96-well plate, incubated for 24 h, and cell viability was measured using the WST-1 viability reagent (Figure 9c,d). […] This was consistent with the lower cell viability found for GA-Hecate-treated cells (65% of the control, Figure 9c).
Figure 9 Effect of peptides on Vero. (a) Cells were treated with 20 µM each of the peptides and cell counts determined at 3 and 7 days (a) during or (b) after treatment, as described in the text. (c,d) depict the cell viability counts from (a,b), respectively, shown as plots. Bars represent triplicate samples of three independent assays. *** p < 0.001. […]
GA-Hecate and GA-metabolite cell toxicity during constant treatment. […] Absorbance was measured at 450 nm, using a plate reader spectrophotometer. […] Cell images were obtained using a confocal microscope and the number of cells/mL was automatically measured using the automated cell counter Scepter^TM (Millipore). […]

[5] = Serum stability, mass spectrometry; assay type: in vitro ADME; conditions: 100 µL of 1 mg/mL peptide + 100 µL fresh human serum, 37 °C, 20 min, ethanol precipitation, ESI mass spectrometry
Description: The GA-Hecate peptide has shown promising efficacy in antiviral assays, but its stability and target selectivity are yet to be determined. An understanding of these properties is crucial for the future progression of the peptide for therapeutic end use. To evaluate its stability, the Hecate peptide was incubated in freshly prepared human blood serum at 37 °C for 20 min. Mass spectrometry was then employed to identify breakdown products (metabolites) (Supplementary Figure S1).
Serum stability. A total of 100 µL of a solution containing 1 mg/mL of Hecate peptide was incubated at 37 °C with 100 µL of fresh human serum for 20 min. Then, 200 µL of 96% ethanol solution in water was added to the mixture, which was centrifuged, and the supernatant was analysed by mass spectrometry as described below. Water was used as a negative control for samples without serum (Supplementary Figure S1).
Mass spectrometry. Compound solutions were analysed by mass spectrometry using a Bruker spectrometer in electrospray positive mode with direct injection. Spectra were analysed with the help of Spectra Analysis Software using the relationship between molecular weight (m) and charge (z) (m/z). Fragments of Hecate were identified, and the amino acid sequence was determined by m/z comparison.

[6] = fresh human serum; conditions: 37 °C, up to 20 min

Compound	Water Solubility [1]	CC50 (50% cytotoxic concentration in VERO cells) [2] [µM]	maximum non-toxic concentration ([2]; Vero cells, WST) [µM]	further results
CC(C)C[C@H](NC(=O)[C@H](C)NC(=O)[C@H](CCCCN)NC(=O)[C@H](CCCCN)NC(=O)[C@H](CC(C)C)NC(=O)[C@H](C)NC(=O)[C@H](CCCCN)NC(=O)[C@H](CCCCN)NC(=O)[C@H](CC(C)C)NC(=O)[C@H](CCCCN)NC(=O)[C@H](CCCCN)NC(=O)[C@H](CC(C)C)NC(=O)[C@H](C)NC(=O)[C@H](CCCCN)NC(=O)[C@H](CCCCN)NC(=O)[C@H](CC(C)C)NC(=O)[C@H](C)NC(=O)[C@H](CCCCN)NC(=O)[C@H](CC(C)C)NC(=O)[C@H](C)NC(=O)[C@H](CC(C)C)NC(=O)[C@H](C)NC(=O)[C@H](Cc1ccccc1)NC(=O)c1cc(O)c(O)c(O)c1)C(N)=O [GA-Hecate] (Galloyl-FALALKALKKALKKLKKALKKAL-NH2)	Soluble	>70.0	40	
CC(C)C[C@H](NC(=O)[C@H](CCCCN)NC(=O)[C@H](CCCCN)NC(=O)[C@H](CC(C)C)NC(=O)[C@H](C)NC(=O)[C@H](CCCCN)NC(=O)[C@H](CCCCN)NC(=O)[C@H](CC(C)C)NC(=O)[C@H](C)NC(=O)[C@H](CCCCN)NC(=O)[C@H](CC(C)C)NC(=O)[C@H](C)NC(=O)[C@H](CC(C)C)NC(=O)[C@H](C)NC(=O)[C@H](Cc1ccccc1)NC(=O)c1cc(O)c(O)c(O)c1)C(=O)O [GA-Metabolite 5] (Galloyl-FALALKALKKALKKL-OH)	Soluble	>70.0	40	virucidal inhibition ([3]; 20 µM): 98.5%; virucidal inhibition ([3]; 40 µM): 98.5%; cell viability [4]: did not have any effect on cell viability or cell shape
CC(C)C[C@H](NC(=O)[C@H](C)NC(=O)[C@H](CCCCN)NC(=O)[C@H](CC(C)C)NC(=O)[C@H](C)NC(=O)[C@H](CC(C)C)NC(=O)[C@H](C)NC(=O)[C@H](Cc1ccccc1)NC(=O)c1cc(O)c(O)c(O)c1)C(=O)O [GA-Metabolite 6] (Galloyl-FALALKAL-OH)	Not soluble			
CC(C)C[C@H](NC(=O)[C@H](C)NC(=O)[C@H](CCCCN)NC(=O)[C@H](CCCCN)NC(=O)[C@H](CC(C)C)NC(=O)[C@H](C)NC(=O)[C@H](CCCCN)NC(=O)[C@H](CC(C)C)NC(=O)[C@H](C)NC(=O)[C@H](CC(C)C)NC(=O)[C@H](C)NC(=O)[C@H](Cc1ccccc1)NC(=O)c1cc(O)c(O)c(O)c1)C(=O)O [GA-Metabolite 7] (Galloyl-FALALKALKKAL-OH)	Soluble	>80.0		cytotoxic effect ([2]; Vero cells, WST, all tested concentrations 80-0.62 µM): did not show any cytotoxic effect
CC(C)C[C@H](NC(=O)[C@H](C)NC(=O)[C@H](CCCCN)NC(=O)[C@H](CCCCN)NC(=O)[C@H](CC(C)C)NC(=O)[C@H](C)NC(=O)[C@H](CCCCN)NC(=O)[C@H](CCCCN)NC(=O)[C@H](CC(C)C)NC(=O)[C@H](CCCCN)NC(=O)[C@H](CCCCN)NC(=O)[C@H](CC(C)C)NC(=O)[C@H](C)NC(=O)[C@H](CCCCN)NC(=O)[C@H](CCCCN)NC(=O)[C@H](CC(C)C)NC(=O)[C@H](C)NC(=O)[C@H](CCCCN)NC(=O)[C@H](CC(C)C)NC(=O)[C@H](C)NC(=O)[C@H](CC(C)C)NC(=O)[C@H](C)NC(=O)[C@@H](N)Cc1ccccc1)C(N)=O [Hecate] (H-FALALKALKKALKKLKKALKKAL-NH2)				stability in human blood serum [5]: degraded in human blood serum into three major metabolites
H3^+N-FALALKALKKALKKLKKALKKAL-CONH2				cleaved bond [6]: L-K, major, 20 min
